In patent US20220396612A1 (UNIVERSIT DE TOURS, published 2022):

T1: virus-like particles (VLPs) of BK polyomavirus VP-1 protein, serotype Ia (BK virus (BKPyV), serotype Ia, UniProt P03088 1-361)
T1 construct: self-assembled native VLPs coated on ELISA plates; also called VLP Ia; BKV VP-1, serotype Ia
T1 chain: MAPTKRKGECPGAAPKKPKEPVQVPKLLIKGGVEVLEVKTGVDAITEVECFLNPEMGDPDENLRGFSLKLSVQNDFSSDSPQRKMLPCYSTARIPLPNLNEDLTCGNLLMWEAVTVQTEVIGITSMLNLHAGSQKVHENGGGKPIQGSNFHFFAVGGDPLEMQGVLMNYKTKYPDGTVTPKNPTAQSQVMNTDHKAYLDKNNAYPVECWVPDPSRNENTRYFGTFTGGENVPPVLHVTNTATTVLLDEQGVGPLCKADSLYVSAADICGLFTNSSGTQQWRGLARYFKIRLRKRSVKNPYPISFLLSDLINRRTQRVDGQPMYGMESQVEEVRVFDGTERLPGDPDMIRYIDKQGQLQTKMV

T2: virus-like particles (VLPs) of BK polyomavirus VP-1 protein, serotype Ib2 (BK virus (BKPyV), serotype Ib2, PA …, UniProt P03088 1-362)
T2 construct: native VLPs; also the immunogen; also called VLP Ib2; BK Ib2
T2 chain: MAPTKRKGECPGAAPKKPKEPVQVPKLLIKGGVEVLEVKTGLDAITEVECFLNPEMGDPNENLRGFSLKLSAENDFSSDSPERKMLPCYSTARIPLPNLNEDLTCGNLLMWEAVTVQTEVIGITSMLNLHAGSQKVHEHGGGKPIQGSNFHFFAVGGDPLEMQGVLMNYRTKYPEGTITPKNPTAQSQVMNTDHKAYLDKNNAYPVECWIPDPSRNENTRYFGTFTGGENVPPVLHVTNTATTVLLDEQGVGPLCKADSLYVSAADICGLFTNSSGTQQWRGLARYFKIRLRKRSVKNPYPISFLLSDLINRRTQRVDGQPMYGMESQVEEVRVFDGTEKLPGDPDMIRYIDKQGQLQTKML

T3: virus-like particles (VLPs) of BK polyomavirus VP-1 protein, serotype II (BK virus (BKPyV), serotype II, UniProt P14996 1-362)
T3 construct: native VLPs; also called VLP II
T3 chain: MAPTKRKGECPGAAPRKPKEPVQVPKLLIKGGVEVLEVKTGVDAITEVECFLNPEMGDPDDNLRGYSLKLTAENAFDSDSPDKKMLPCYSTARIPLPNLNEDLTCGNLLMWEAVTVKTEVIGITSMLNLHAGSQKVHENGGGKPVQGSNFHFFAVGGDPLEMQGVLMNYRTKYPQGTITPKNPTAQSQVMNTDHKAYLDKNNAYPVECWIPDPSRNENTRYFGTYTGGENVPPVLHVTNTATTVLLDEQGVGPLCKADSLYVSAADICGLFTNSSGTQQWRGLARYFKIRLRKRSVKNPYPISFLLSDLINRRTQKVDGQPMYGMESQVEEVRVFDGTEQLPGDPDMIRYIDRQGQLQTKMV

T4: virus-like particles (VLPs) of BK polyomavirus VP-1 protein, serotype IV (BK virus (BKPyV), serotype IV, UniProt P14996 1-362)
T4 construct: native VLPs; also called VLP IV
T4 chain: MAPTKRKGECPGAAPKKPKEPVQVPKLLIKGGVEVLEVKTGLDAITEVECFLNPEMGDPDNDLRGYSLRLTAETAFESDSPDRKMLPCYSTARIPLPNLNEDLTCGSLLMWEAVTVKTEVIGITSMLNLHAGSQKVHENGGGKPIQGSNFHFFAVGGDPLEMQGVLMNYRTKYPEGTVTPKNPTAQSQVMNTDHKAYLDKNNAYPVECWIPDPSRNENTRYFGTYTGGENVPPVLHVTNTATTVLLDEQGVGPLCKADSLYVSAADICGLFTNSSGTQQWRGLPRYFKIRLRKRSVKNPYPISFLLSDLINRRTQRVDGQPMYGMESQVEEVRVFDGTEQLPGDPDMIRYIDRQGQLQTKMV


Assays:
[1] = molecular target: T1, virus-like particles (VLPs) of BK …; assay: ELISA on coated VLP; supernatant 1/80
Experimental: (§1) To do this, the VLPs produced were deposited at a concentration of 1 μg/mL in PBS and incubated overnight at +4° C. The wells were then blocked for 1 h at +37° C. with a PBS/FCS (phosphate-buffered saline/fetal calf serum) mixture. After dilution in a dilution buffer containing FCS, PBS and Tween® 20, the various hybridoma culture supernatants were added for 1 h at +37° C. The wells were washed four times in a row with Wash Buffer and a secondary anti-mouse antibody coupled to peroxidase was added to the 1:2000 dilution for 1 h at +37° C. The wells were washed four more times and the substrate (OPD (ortho phenylene diamine)+H₂O₂) was added for 30 min at room temperature. A stop solution (H₂SO₄ 4N) was then added and each well was read by measuring the absorbance at 492 nm with a spectrophotometer. The value obtained for the average of the control wells (PBS in the first step) is subtracted from the optical density values obtained for each well.

[2] = molecular target: T2, virus-like particles (VLPs) of BK …; assay: ELISA on coated VLP; supernatant 1/80
Experimental: as §1

[3] = molecular target: T3, virus-like particles (VLPs) of BK …; assay: ELISA on coated VLP; supernatant 1/80
Experimental: as §1

[4] = molecular target: T4, virus-like particles (VLPs) of BK …; assay: ELISA on coated VLP; supernatant 1/80
Experimental: as §1

[5] = molecular target: T1, virus-like particles (VLPs) of BK …; assay: ELISA on coated VLP; supernatant 1/640
Experimental: as §1

[6] = molecular target: T2, virus-like particles (VLPs) of BK …; assay: ELISA on coated VLP; supernatant 1/640
Experimental: as §1

[7] = molecular target: T3, virus-like particles (VLPs) of BK …; assay: ELISA on coated VLP; supernatant 1/640
Experimental: as §1

[8] = molecular target: T4, virus-like particles (VLPs) of BK …; assay: ELISA on coated VLP; supernatant 1/640
Experimental: as §1

[9] = molecular target: T1, virus-like particles (VLPs) of BK …; assay: ELISA on coated VLP; supernatant 1/10 240
Experimental: as §1

[10] = molecular target: T2, virus-like particles (VLPs) of BK …; assay: ELISA on coated VLP; supernatant 1/10 240
Experimental: as §1

[11] = molecular target: T3, virus-like particles (VLPs) of BK …; assay: ELISA on coated VLP; supernatant 1/10 240
Experimental: as §1

[12] = molecular target: T4, virus-like particles (VLPs) of BK …; assay: ELISA on coated VLP; supernatant 1/10 240
Experimental: as §1

Row | Binder | OD 492 nm [1] [OD] | OD 492 nm [2] [OD] | OD 492 nm [3] [OD] | OD 492 nm [4] [OD] | OD 492 nm [5] [OD] | OD 492 nm [6] [OD] | OD 492 nm [7] [OD] | OD 492 nm [8] [OD] | OD 492 nm [9] [OD] | OD 492 nm [10] [OD] | OD 492 nm [11] [OD] | OD 492 nm [12] [OD]
1 | monoclonal antibody ‘F6’ secreted by clone BK6A2F6 (antibody) heavy: EVQLQQSGPELVKPGASVKISCKASGYSFTGYFMNWVKQSHGKSLEWIGRINPYNGDTFYNQKFKGKATLTVDKSSSTAHMELLSLTSEDSAVYYCGSYYYGDYFDYWGQGTTLTVSSAKTTPPSVYPLAPGSAAQTNSMVTLGCLVKGYFPEPVTVTWNSGSLSSGVHTFPAVLQSDLYTLSSSVTVPSSTWPSETVTCNVAHPASSTKVDKKIVPRDCGCKPCICTVPEVSSVFIFPPKPKDVLTITLTPKVTCVVVDISKDDPEVQFSWFVDDVEVHTAQTQPREEQFNSTFRSVSELPIMHQDWLNGKEFKCRVNSAAFPAPIEKTISKTKGRPKAPQVYTIPPPKEQMAKDKVSLTCMITDFFPEDITVEWQWNGQPAENYKNTQPIMDTDGSYFVYSKLNVQKSNWEAGNTFTCSVLHEGLHNHHTEKSLSHSPGK light: […] | 3.26 | 0.59 | 0.44 | 3.11 | 3.07 | 0.19 | 0.14 | 2.86 | 0.19 | 0.08 | 0.08 | 0.48
2 | monoclonal antibody ‘H6’ secreted by clone BK6A2H6 (antibody, V domains shown) VH: EVQLQQSGPELVKPGASVKISCKASGYSFTGYFMNWVKQSHGKSLEWIGRINPYNGDTFYNQKFKGKATLTVDKSSSTAHMELLSLTSEDSAVYYCGSYYYGDYFDYWGQGTTLTVSS VL: SIVMTQIPKFLLVSEGDRVTITCKASQSVSNDVAWYQQKSGQSPKLLIYYASNRYTGVPDRFTGSGYGTDFTFTISTVQAEDLAVYFCQQDYSSPLTFGAGTKLELKR | 3.13 | 0.49 | 0.22 | 3.14 | 2.49 | 0.17 | 0.08 | 1.59 | 0.22 | 0.06 | 0.06 | 0.17
